Assay: soluble on expression in E. coli; label from the status in PepcDB or PDB records

Sequence | soluble on expression in E. coli
MEITWEKPKSSSHHRNPSFSSTLLDQIYRSIDDSSPPPPLESIKKKKHHHQQRNASLHEDREISPIYHRRSIAADFERSRRKTDFLRHSNSSSSDSSGFSSSESDSFHGRSKSSASPPSSSRQQPKPIRTSSVDHSSAVQKPKELGGFLRTKSKALKIYSDLKKVKQPISPGGRLATFLNSLFTNAATNPKKHKKTTTVAVVEEPHSSSTCSSASSFSRSCLSKTPSSSGKSKRSVRFCPVNVILDEDSSFTMPYAYNNERLYDNNEAKRVEEHRRVIQAAKDLLRTYHNKNKVTTTNINNVEEDDEDDAASCASSDLFELENLSAIGIERYREELPVYETTRLDNMNRVIATGLIV | soluble
NENNTVVAETKTSTASETSEPKQVISSKQQLASLYLQAKQSLFKQRALSATMYGLSQKDIGQVISSDMEFYSPENEKQLRAELLSISNTIAGIKLDDADITTKNNQQVMAGLTRYFAGEPNFNIGYIDTWMGLSPFIVNQINGPLIDIPRVMQNDQPITTEKEALDYIVRLGQFDKLAATIIEKQTADAAQNWLPSKVTLQGAIKYLKGFTSGSAEQHPFVNVFREKIEKVDSLTTEQKQSLITQVIAKVSQVVYPAYQSVEKASEQLLSEARSESGIWAQPKGSVYYQDAIKQLGDSELSPTQIHQIGLDEVARISGVMNEILLAQGYTKGTVGERMVALNEEPRFLYEDSIAGREELLSDINGYITEVTAKMAPVFRTTPSYQVEVKSFPVEVQDGAPGGQYTSPAVDGSKPGIYWINLRDMKANPKFGLKTLTYHEANPGHHWQIALNLDQAELPFLRRIAPYNAYTEGWALYSEQVAYELGMYENDPFGDLGRLQAELFRAVRLVVDTGLHDKRWTREQAISYMSEQTGTAESDVVAEIERYMAWPGQALGYKLGMLKILSLREQAKARLGDKFDLAEFHDVVLLNGAVPMAVLSRNVNHWLDNK | soluble
MSLGNTGVASADYLTAPFYNPALVASFEEHDDFGLLLPAIGVNVRDSDESLATIDDLQDSIDEFEAAPIPSPGQIDQLNRYLDDLQGNAPLTASSSLGLAVAIPTKRFSTNLFARGYLELIARPNIADYLSTGPGNEVADTKKRYEDSSVTMAAFGYVEYGAALAKEFEIKEQRISFGVTPKIQQLTTYYVVPTVADFELDDYEESEHKESAFNLDFGVVWLKDKFQVALAVKDLLSQEIDLKDKNGQKQDVYELNTQVSAGVAYRSDFFTAAMDLDLTKQERFKSLDDETQFVRFGVEGNAWGWAQLRAGYEIDLEDTVENAFTAGIGISPFDVVSLDIAGSYAGENQFGVSGNLAFTFEGHHHHHH | not soluble
MSLQNVESELKDIRLPYKTKSLCPECLKILEAEVYEENGKVMIRKVCEEHGEFVDVYWGDAEMFKKAARFAADGHGISTPITQNTTCPFSCGLCNNHKSHTALLNIVLTNRCDLACWYCFFYARRAGYVYEPTIEQIREMVRKAKNMKPIGCNAVQLTGGEPTLRDDLIDIIRMIKEEGYDHIQLNTNGIRLAEDPDFALRVRVAGVNTVYLSFDGVDEKTNPKNHHEIPKILENCRRAQLGLVLVPTVIKGVNDHQLGDIIRFAAENIDIVRGVNFQPVSLVGSMPRKEREQFRITIPDCIKAIEEQTNGEIGREDFYPVPSVVPISRFVEALTGQPQYELTTHFACGMATYIFKDNGRLIPITRFVDVEGLFEFLNEKAEEIAKSRMKTIRAIKDIIDLRKFVDTSKAPKGFNIAKILYEVLIKHDYSTLGEFHVKSLFIGMMHFQDLYNYDIARVERCEIHYGSPDGRIIPFCTFNVIPERYRDAIHEKYGIPIEEWEKRTGRKLKDDIKRAVRRPEGHHHHHH | soluble
MGSDKIHHHHHHMKEQILEKLKTVKYPGFEKDIVSFNFVKDIKIQDDGVFIDIEIVSANPEVANEIRKNTIEALSSLALKNIELNIITPKIPEEKSNSRSGKNIAPQVKNFIMVSSGKGGVGKSTTTVNLAISMAKMGKRVGILDADIYGPNIPRMLGETKTQPEVVGQRLKPILTHGVYMMSMGVLIEEGQGLMWRGAMIMKAIEQLLADVIWPELDVLFLDMPPGTGDAQITSAQSIPIAAGVCVSTPQTVSLDDSKRALDMFNKLHIPIAGVIENMSGFLCPDNGKEYDIFGKGTAEDMAKAYKSEVLAQIPIEMIVREGGDEGKPVSFYHPESVSSKRYLMAAEKIWSFIEKINNEGGADNSAIQPVMNGKSACSH | not soluble
MTKIFEAKVLAVGPEALSMIKDANMLILFGEEAPQDLADYCYKIDNKNLSGHIKKGGHLVINGNDCQITAVGSVVEKNLTGLGHITISLDGSKESSLPGTLHIQAEFPVQLEAGSLIQIFD | soluble
MSLDAIEAEREVLIGFLQEFVRAASPNPPGDTRAAAAVIQGFLSARGVPNELLGPQESMPNVVSECEGGRAGPRLVYNGHMDVFPVGDGHGWTRDPWSGDIEEGRLHGRGTCDMKTGTAASVIAYAYLYARRAQLAGSVALTAVSDEETGGRWGTRWLLENDTRWRGDCVLNGEPSSLDTIRFSEKGTLRLKFEVLAAGAHGAYVHRSESPTRIAAALIGRLAEVEAIEPSLPAALKAHLQREDVRRALDVAMGEGAADVVTRTTLNVGVLNGGLKINMIPDRCVFEVDIRLPVGTEPDVVLARLEGILAEFPQASMEVQQWHSTPPNVCAHDHPMVDFIADNAQAIVGRRPVAVPSIGSTDCRYWRRSGVPAYVYGPAPGRMAMSNESVDLDEFIAVAKVHAAAGWDYLNGAAEGHHHHHH | not soluble
MGSDKIHHHHHHMKQAEEVIHPEALSGTGIMTISREPVVFHCNHYNRFLQLVIEDCHYIDREPILVGSATEVSFRQLRTAFREHPEWSVANRLKYAESMYRFCGFGDLPLGALPHSAEPEFVLVENHSHYGTALRLNYGKRRWPGEHFDLGYAIGALSAIYGQPYGGKIDATALSTGAETTRFHLHLRNSGDRFPLDIPDIPQAVLPQGADQVPPRHIGLHIDEDAIMTAVGTLPLTGDPDGLIPAFGVYLTRHYADYYNLVSFRFERALQEALNTHRYLGEMLWYEYPTLFYYKEKFEHLQGQALARTLLMEAGHICGFNTMGGIMRSDPWYQLIVPQLQCREDWLSGIIACINALGWGVWRIQEIIPNERLILRAWYPYESLGHLRAFGPADHPIDYLMTGIGSSLMNLLYTADITTRPDLTLEFYYQVNRSKAGFWARQTRCMAMGDPYSEVVVERNIL | not soluble
MGSDKIHHHHHHMPKLIIDADDFGLSKAINHGIIESYKTGITTSTLLMPNLETAEHAIALAKNHPDLFIGQHTNFLLGKPCANPAEIPSLVDENGEFHRSKYYRANPELKFQYEDVRTETIAQMERFKALTGHYPEHIDCHSIGDETVDQAFFDIAREFGIHTTLKYSGDKKWSDQEGYLPITKLLESGALPYTNGGVSVENFLNDDFGLLKLAPNEIAEMHFDVGFLDQFVLDNSSYTLMRCRELATICDVRVRDWLLENGFELITFGDLQR | not soluble
MISPQEQQKQEIATTPSGTKENEKLVVPGVQVALENISTKSVLNAVNYKYAQLFHREQVSSAQSNTTSKQYIEERKTSNGTIGEVLRKFEKGRLLGKGGFAKVYQLTDIHTHQKYAGKIIPKNAIRKESAKQKLISEIRIHRELRHRHIVKFESCFEDQENVYIVLELCPNGSIMDMVRQRGRLTEYETRYFMIQILDAIRYMHRECLVIHRDLKLGNFFLDENMEVKIGDFGLAAQLSSDKERKRTICGTPNYIAPEILSGKQGHSFEVDIWSTGVVFYTMLVGKPPFETSDVKSTYKRIKENIYSIPESLDLSTSAIELIGSILNSDPAKRLSLDEIRSHPFFDAKIPRALSIHALKSTPVFEESELIERNKESSSYKKGRENRQQTVVGSSGLWNDVIQSISQDQRTPLQKLQQHIKSNAAKNNDHAEKLHQALEKHLQLNDNQSKKEEKLLESQEAHSKSTKGIFDKGLDTQSEDEERMVLNKVRDQLTSSFALLKNAEQSPYAFTSSLNTNDGTTSGSPSFQSPVNALTGGAWICKWLDYSKKYGLGYQTCLGSTGVCFNDGTQIILEKGQQNWIYYMKRTESHEERNENKWIKMTMEDYPSELQKKVKLLIHFRNYMLDHTPKGQEDPLISPESSFQNIDTSNETCGAKDATRPVYIKTWFRSPYAIIFRLSNRNIQVDFNDGTEVILSPEVHVVTYRGKDGRRNSYQQGHLPSLPELLKRLRYVMDLLQEMLNRKTS | soluble
MSNKLESYRSEIVSLNHQILDLLSKRGELAQKIGEEKLKQGTRIYDPQREKEMLNDLIDSNKGPFNDNTIKQLFKEIFKASTDLQKSENEKHLYVSRKLKPEDTIVTFDNGGIIGDGNKSFVFGPCSVESFEQVEAVAKNLHAKGEKFIRGGAFKPRTSPYDFQGLGVEGLKILKQIKDKYDLNVVSEIVNPNDFEVADEYLDVFQIGARNMQNFELLKEAGRTKKPILLKRGLSATIEEFVYAAEYIASQGNQNIILCERGIRTYEKATRNTLDISAVPILKQGTHLPVMVDVTHSTGRKDIMLPTAKAALAVGADGVMAEVHPDPSVALSDAGQQMDLDEFQAFYDELKPLADLYNAKKLK | not soluble
MGSDKIHHHHHHMDIIEELRAYREKDIPYSRVLSSMCTVPHPVAVEAHRMFIETNLGDPGIFRGTVELEAKLMRLIGDILHCETPAGYICSGGTEANIQGIRAARNVQKKENPNIVIPKTAHFSFEKIGDILGVKIKRAGVDEEYKVDVGQVEDLMDENTVAIVGIAGTTELGQIDPIVELSKLAEERQVELHVDAAFGGLVIPFMDNPYPFDFQNRGVSSITIDPHKMGMATIPAGGIIFRNESYLRALEVETPYLTSKTQFTLTGTRPGTGVASAYAVLKSLGFEGMREVVKNCLKNTRILVEEMRDLGFEPVIEPVMNVVSFRTDEAERIKEELYRMRWVISTIREPKAIRFVVMPHVTEEVIKNFISDFRKVLRR | not soluble
MDKKILVVDDEKPIADILEFNLRKEGYEVHCAHDGNEAVEMVEELQPDLILLDIMLPNKDGVEVCREVRKKYDMPIIMLTAKDSEIDKVIGLEIGADDYVTKPFSTRELLARVKANLRRQ | soluble
MSQANRTNGLVDYKELETNILSSIQEGKPLTGRDGALTPFIKRLLEASLEGEIESHMSAKSEENNRRNGRNAKTLRTSAGSFELLTPRDREGNFEPQIVKKRQTSLHPELEAKVLSTYASGMGYRDIASHVEEIYDHKISAAEISSITDKLLPIINEWRSRPLQSVYPIVFMDGMFFKVKEDGHCVSKCMYNILGINQNGRKEVLGFYLAESEGATFWLGVLNDLKERGVEDILIACIDGLKSFPTAINSVFPSAEVQLCIVHQIRNSLKYVSSKDVKVFMNDLKKIYRASSKEIAENYLLELEEKWGEKYPLVIKSWQNNWENLSSYFKYSGPVRKLIYTTNPIEGLHRQIRKFTKTKGSFTSTNALYKQVYCAIKKVEQKWIMALPNWALTMSQLDIFFPGRLKIELN | soluble
MGSDKIHHHHHHMFDWEDLRHFSAFSSAGSLSAAAKTLGVDHATVARRIASLEASLQLKLVDRRPRAYALTHEGQRVAELAEQMAMSSFALEHFASAGQQTVEGEVVLSAPPALLGSIIARRLGELYQRYPQLRLKLVGSKSKASLVRREADISIALARPTEPTLVVSLLGHLDYRLYASPGYLASATVRRYIGYDESQARSPQQQWLNLQAGQQPFALHSNDLRIQAQACAGGIGIACLPAFMAQEHGLKEAGSAQQTMSIEIWLAVHEDVRATPRIKAVTDFLQQQVRPLLRL | not soluble
SMGGPQYGIAREDVVLNRILGEGFFGEVYEGVYTNHKGEKINVAVKTCKKDCTLDNKEKFMSEAVIMKNLDHPHIVKLIGIIEEEPTWIIMELYPYGELGHYLERNKNSLKVLTLVLYSLQICKAMAYLESINCVHRDIAVRNILVASPECVKLGDFGLSRYIEDEDYYKASVTRLPIKWMSPESINFRRFTTASDVWMFAVCMWEILSFGKQPFFWLENKDVIGVLEKGDRLPKPDLCPPVLYTLMTRCWDYDPSDRPRFTELVCSLSDVYQMEKDIAME | soluble
RGDSLNYRLLRPEVEKTGLQYPLVLFLHGAGERGSDNEKQLTHGGQMFLNPVNREKYPAFVLVPQCPEKDYWAYTSRPSSFIPSEMPVGQEITPVLRAVKELLDTYLDLPQVDRNRIYVVGLSMGGMATYDLAVRFPDTFAAAVPICGTVNPVRLADAANVRFRIFHGDADNVVPVEGSREAYKALKNLGAEVEYIEFPGCNHGSWNPAFNYPGFMEWLFAQRK | not soluble
